Measured values taken from PMC2958304.

Molecular target: Fat (Ft), full-length (pAct-ft) (Drosophila) (UniProt P33450)
Assay: cell aggregation assay; S2 cells transfected with ft mixed with S2 cells transfected with ds (one set cotransfected with pMK33B fj forms, with or without CuSO4 for 16 hr); rotated 100 rpm 2 hr, immunolabelled; percent of ft-expressing cells binding to ds-expressing cells counted

Sequence of UniProt P33450 (P33450 36-5147): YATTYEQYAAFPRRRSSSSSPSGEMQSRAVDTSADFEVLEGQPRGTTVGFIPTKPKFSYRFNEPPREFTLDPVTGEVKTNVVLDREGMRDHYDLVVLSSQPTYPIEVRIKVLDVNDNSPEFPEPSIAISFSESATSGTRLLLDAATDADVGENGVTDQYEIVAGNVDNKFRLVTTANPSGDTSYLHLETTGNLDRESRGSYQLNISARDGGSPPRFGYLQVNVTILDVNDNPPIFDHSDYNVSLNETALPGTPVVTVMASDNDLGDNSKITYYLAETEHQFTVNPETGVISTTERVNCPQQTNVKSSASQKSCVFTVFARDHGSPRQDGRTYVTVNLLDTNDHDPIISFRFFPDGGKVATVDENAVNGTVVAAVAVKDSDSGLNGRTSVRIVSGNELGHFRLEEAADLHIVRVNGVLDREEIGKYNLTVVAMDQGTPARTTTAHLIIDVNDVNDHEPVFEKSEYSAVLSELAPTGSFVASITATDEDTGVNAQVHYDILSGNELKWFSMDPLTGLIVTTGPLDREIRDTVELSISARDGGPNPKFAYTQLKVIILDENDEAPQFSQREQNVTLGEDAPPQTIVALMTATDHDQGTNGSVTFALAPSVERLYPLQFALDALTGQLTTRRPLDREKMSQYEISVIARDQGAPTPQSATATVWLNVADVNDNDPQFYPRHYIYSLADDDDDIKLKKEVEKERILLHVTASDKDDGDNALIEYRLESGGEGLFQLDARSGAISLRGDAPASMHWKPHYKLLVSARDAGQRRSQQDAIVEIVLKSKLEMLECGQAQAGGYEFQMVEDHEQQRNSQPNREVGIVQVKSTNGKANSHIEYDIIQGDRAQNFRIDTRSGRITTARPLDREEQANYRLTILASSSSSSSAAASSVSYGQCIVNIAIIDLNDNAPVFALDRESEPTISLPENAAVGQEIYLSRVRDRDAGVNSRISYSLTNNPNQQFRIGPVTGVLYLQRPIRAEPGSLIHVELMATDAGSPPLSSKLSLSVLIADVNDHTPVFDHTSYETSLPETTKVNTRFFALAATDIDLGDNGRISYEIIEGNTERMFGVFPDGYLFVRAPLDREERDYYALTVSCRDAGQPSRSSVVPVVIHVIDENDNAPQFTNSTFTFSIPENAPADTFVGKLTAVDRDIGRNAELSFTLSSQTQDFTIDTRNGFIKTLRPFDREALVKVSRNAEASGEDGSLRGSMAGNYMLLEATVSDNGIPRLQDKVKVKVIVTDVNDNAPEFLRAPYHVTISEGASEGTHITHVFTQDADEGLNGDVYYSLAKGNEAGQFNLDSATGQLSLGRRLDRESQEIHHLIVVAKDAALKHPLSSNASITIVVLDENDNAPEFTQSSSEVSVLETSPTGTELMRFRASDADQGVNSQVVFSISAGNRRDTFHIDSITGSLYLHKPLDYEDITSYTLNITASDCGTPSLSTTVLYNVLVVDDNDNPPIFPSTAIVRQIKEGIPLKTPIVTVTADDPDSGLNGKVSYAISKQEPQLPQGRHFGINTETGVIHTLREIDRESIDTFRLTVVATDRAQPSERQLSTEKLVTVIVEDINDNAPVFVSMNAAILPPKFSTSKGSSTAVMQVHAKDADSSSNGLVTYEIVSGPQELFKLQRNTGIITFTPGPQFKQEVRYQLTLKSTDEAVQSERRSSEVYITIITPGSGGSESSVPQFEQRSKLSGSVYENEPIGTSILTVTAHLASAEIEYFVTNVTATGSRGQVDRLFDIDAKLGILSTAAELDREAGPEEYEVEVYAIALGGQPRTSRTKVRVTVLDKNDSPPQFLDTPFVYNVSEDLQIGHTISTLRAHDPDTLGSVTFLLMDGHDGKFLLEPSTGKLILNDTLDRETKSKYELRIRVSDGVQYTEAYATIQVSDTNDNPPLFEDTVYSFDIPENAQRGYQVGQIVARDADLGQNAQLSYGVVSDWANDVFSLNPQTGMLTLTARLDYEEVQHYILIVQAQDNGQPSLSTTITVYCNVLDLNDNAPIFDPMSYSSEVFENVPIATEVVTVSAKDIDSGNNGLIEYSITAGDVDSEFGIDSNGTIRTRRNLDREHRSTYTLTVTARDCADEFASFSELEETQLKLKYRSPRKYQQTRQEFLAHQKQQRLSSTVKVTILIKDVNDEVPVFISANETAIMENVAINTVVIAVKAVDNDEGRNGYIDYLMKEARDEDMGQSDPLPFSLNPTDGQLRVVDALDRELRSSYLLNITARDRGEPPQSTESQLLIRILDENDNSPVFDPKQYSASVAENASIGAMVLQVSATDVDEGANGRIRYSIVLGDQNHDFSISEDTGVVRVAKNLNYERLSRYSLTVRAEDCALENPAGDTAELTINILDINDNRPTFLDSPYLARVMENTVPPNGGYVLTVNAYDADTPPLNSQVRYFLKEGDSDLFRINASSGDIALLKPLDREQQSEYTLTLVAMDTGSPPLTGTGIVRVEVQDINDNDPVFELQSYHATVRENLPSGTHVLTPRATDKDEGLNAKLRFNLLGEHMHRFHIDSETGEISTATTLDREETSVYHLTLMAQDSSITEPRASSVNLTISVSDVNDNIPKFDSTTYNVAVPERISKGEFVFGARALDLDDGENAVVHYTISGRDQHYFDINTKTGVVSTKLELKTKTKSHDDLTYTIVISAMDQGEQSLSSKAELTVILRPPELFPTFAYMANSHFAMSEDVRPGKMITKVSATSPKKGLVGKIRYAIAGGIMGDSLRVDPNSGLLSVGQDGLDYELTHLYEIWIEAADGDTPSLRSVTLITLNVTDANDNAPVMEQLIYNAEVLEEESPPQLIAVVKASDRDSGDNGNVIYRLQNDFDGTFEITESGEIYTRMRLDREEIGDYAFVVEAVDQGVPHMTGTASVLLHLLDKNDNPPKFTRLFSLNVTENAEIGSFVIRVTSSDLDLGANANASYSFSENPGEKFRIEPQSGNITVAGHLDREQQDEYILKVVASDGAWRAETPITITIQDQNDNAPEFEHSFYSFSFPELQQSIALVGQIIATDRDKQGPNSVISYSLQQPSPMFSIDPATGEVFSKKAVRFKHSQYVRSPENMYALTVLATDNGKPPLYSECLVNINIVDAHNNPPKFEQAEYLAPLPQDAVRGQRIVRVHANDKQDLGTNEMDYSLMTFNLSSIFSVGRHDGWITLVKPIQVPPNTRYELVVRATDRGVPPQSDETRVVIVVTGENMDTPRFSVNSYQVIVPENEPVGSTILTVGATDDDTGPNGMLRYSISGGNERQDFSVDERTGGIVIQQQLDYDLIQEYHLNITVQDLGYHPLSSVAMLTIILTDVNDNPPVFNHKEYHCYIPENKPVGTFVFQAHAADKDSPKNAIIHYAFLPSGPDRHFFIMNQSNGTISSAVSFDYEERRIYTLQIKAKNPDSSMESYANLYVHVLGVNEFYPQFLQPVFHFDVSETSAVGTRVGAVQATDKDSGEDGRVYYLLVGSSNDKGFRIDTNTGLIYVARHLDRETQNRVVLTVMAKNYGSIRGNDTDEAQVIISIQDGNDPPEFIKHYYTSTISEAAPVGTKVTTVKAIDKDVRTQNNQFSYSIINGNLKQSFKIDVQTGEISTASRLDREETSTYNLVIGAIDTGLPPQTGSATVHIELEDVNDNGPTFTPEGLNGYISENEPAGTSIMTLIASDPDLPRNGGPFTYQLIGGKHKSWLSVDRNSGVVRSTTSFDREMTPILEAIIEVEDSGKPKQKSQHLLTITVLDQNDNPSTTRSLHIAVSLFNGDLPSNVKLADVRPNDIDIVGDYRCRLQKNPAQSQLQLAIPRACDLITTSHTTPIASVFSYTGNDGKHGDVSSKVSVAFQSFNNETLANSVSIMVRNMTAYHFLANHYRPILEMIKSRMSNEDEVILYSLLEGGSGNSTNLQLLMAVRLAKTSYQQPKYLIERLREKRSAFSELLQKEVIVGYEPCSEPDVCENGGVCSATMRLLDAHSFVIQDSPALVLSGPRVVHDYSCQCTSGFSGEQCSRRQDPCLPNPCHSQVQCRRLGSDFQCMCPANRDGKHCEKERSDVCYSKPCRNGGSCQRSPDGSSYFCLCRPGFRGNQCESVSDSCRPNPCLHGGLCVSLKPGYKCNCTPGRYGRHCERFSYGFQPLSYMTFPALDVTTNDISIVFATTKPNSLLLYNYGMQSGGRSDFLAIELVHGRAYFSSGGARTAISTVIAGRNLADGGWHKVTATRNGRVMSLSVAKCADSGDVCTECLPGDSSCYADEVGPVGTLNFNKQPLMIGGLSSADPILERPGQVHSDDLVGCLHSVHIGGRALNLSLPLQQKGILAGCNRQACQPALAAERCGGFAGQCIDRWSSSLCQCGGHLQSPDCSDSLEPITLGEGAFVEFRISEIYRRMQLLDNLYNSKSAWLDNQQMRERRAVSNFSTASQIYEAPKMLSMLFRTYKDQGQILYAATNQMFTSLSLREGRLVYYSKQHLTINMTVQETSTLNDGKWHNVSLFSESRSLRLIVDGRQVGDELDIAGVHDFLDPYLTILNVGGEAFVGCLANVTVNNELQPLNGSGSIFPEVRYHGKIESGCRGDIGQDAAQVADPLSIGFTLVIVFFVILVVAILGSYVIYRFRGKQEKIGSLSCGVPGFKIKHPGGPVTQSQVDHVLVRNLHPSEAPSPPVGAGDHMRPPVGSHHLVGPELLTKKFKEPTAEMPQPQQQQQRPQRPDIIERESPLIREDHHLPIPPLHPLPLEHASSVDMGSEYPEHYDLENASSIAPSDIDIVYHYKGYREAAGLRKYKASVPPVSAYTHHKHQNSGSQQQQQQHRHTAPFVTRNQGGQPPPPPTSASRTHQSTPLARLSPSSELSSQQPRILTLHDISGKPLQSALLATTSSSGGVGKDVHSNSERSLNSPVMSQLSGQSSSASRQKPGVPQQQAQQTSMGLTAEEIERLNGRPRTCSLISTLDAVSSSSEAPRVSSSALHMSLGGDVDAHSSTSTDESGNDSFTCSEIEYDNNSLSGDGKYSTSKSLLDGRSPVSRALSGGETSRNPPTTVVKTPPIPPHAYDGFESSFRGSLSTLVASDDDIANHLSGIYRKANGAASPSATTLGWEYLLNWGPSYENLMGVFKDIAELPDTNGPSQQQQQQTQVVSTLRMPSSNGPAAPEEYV

reduction of binding against the same cells without Fj induction: 40%
Substance: Dachsous (Ds), untagged form, coexpressed with Fj or GNT-Fj (phosphorylated by Fj) (receptor)
